Experiments:
[1] = target: T1, CD33 on KILR-HL60 cells (UniProt P20138 18-364, limits assumed); assay: flow cytometry on KILR-HL60 (CD33 expressing) cells, antibody at 1 ug/ml
T1 construct: whole, on cells; Target of the gemtuzumab arm; also called CD33 expressing cells

[2] = target: T1, CD33 on KILR-HL60 cells; assay: flow cytometry on KILR-HL60 (CD33 expressing) cells, antibody at 10 ug/ml
[3] = target: T2, CD3 on Jurkat wild-type cells (UniProt P07766 23-207; P04234 22-171; P09693 23-182); assay: flow cytometry on Jurkat WT cells, antibody at 1 ug/ml
T2 construct: whole, on cells; also called Jurkat WT

[4] = target: T2, CD3 on Jurkat wild-type cells; assay: flow cytometry on Jurkat WT cells, antibody at 10 ug/ml
[5] = target: T3, recombinant human CD3 epsilon/delta heterodimer (human, UniProt P07766 23-126; P04234 22-105); assay: Octet BLI, mAb on FAB2G sensor, hCD3 E/D 200-50 nM; R^2 0.99
T3 construct: Recombinant protein in solution (200-50 nM) in the Octet assay; also called hCD3 E/D; human CD3E/D

[6] = target: T4, recombinant human CD3 epsilon/gamma heterodimer (human, UniProt P07766 23-126; P09693 23-116); assay: Octet BLI, mAb on FAB2G sensor, hCD3 E/G 200-50 nM; R^2 0.84
T4 construct: Recombinant protein in solution (200-50 nM) in the Octet assay; also called hCD3 E/G
Protocol: (§1) Samples were evaluated by flow cytometry analysis against Jurkat and human Pan-T cells (FIG. 1B) as well as by Octet against recombinant human CD3 proteins to evaluate apparent affinities and binding off-rates (Table 6, infra).

[7] = target: T3, recombinant human CD3 epsilon/delta …; assay: Octet BLI, mAb on FAB2G sensor, hCD3 E/D 200-50 nM; R^2 0.97
Protocol: as §1

[8] = target: T3, recombinant human CD3 epsilon/delta …; assay: Octet BLI, mAb on FAB2G sensor, hCD3 E/D 200-50 nM; R^2 1.00

T4 sequence (P07766 23-126, chain 1 of 2): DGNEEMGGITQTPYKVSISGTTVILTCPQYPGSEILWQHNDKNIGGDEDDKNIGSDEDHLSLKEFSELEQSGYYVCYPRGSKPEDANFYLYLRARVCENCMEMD
T4 sequence (P09693 23-116, chain 2 of 2): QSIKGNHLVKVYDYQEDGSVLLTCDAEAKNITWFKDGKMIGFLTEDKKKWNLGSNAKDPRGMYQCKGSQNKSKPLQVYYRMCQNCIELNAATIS
T3 sequence (P07766 23-126, stated change not applied, chain 1 of 2): as the sequence (P07766 23-126, chain 1 of 2) above
T3 sequence (P04234 22-105, stated change not applied, chain 2 of 2): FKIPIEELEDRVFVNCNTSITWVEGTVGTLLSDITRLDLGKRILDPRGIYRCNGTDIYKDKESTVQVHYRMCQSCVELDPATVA
T2 sequence (P07766 23-207, chain 1 of 3): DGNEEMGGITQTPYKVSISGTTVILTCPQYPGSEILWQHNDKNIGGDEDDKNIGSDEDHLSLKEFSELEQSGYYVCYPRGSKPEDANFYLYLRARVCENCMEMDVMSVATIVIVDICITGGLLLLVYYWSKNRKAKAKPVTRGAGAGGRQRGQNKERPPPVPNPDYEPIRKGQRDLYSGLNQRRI
T2 sequence (P04234 22-171, chain 2 of 3): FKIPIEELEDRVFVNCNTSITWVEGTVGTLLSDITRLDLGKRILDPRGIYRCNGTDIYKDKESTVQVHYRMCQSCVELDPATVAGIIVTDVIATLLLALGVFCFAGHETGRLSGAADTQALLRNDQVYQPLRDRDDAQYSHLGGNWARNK
T2 sequence (P09693 23-182, chain 3 of 3): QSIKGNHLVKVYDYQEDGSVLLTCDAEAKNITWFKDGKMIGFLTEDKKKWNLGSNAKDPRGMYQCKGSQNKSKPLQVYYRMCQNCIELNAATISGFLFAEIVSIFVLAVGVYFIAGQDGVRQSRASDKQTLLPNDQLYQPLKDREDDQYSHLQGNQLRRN
T1 sequence (P20138 18-364 limits assumed): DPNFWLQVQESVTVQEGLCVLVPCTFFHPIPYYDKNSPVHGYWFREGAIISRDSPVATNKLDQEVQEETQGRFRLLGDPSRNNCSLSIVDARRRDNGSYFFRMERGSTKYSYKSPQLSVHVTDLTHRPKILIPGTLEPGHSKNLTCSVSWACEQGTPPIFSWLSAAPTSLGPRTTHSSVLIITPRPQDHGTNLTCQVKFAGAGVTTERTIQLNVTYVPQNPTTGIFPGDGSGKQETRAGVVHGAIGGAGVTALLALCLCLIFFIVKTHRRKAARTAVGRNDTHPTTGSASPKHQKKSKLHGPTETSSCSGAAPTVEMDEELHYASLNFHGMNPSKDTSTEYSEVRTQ

Binder	flow cytometry signal [1]	flow cytometry signal [2]	flow cytometry signal [3]	flow cytometry signal [4]	Kd [6]	Response [6]	koff [6]	kon [6]	further results
Control Humanized anti-CD3 (high affinity) scFv-Fc knob/TM x gemtuzumab (bispecific antibody) scFv: EVQLVESGGGLVQPGGSLRLSCAASGFTFSTYAMNWVRQAPGKGLEWVGRIRSKYNNYATYYADSVKGRFTISRDDSKNTLYLQMNSLRAEDTAVYYCVRHGNFGDSYVSWFAYWGQGTLVTVSSGKPGSGKPGSGKPGSGKPGSQAVVTQEPSLTVSPGGTVTLTCGSSTGAVTTSNYANWVQQKPGKSPRGLIGGTNKRAPGVPARFSGSLLGGKAALTISGAQPEDEADYYCALWYSNHWVFGGGTKLTVLGGGGSDKTHTCPPCPAPEFEGGPSVFLFPPKPKDTLMISRTPEVTCVVVDVSHEDPEVKFNWYVDGVEVHNAKTKPREEQYNSTYRVVSVLTVLHQDWLNGKEYKCKVSNKALPASIEKTISKAKGQPREPQVYTLPPCREEMTKNQVSLWCLVKGFYPSDIAVEWESNGQPENNYKTTPPVLDSDGSFFLYSKLTVDKSRWQQGNVFSCSVMHEALHNHYTQKSLSLSPGK heavy: EVQLVQSGAEVKKPGSSVKVSCKASGYTITDSNIHWVRQAPGQSLEWIGYIYPYNGGTDYNQKFKNRATLTVDNPTNTAYMELSSLRSEDTAFYYCVNGNPWLAYWGQGTLVTVSSASTKGPSVFPLAPSSKSTSGGTAALGCLVKDYFPEPVTVSWNSGALTSGVHTFPAVLQSSGLYSLSSVVTVPSSSLGTQTYICNVNHKPSNTKVDKRVEPKSCDKTHTCPPCPAPEFEGGPSVFLFPPKPKDTLMISRTPEVTCVVVDVSHEDPEVKFNWYVDGVEVHNAKTKPREEQYNSTYRVVSVLTVLHQDWLNGKEYKCKVSNKALPASIEKTISKAKGQPREPQVCTLPPSREEMTKNQVSLSCAVKGFYPSDIAVEWESNGQPENNYKTTPPVLDSDGSFFLVSKLTVDKSRWQQGNVFSCSVMHEALHNRFTQKSLSLSPGK light: DIQLTQSPSTLSASVGDRVTITCRASESLDNYGIRFLTWFQQKPGKAPKLLMYAASNQGSGVPSRFSGSGSGTEFTLTISSLQPDDFATYYCQQTKEVPWSFGQGTKVEVKRTVAAPSVFIFPPSDEQLKSGTASVVCLLNNFYPREAKVQWKVDNALQSGNSQESVTEQDSKDSTYSLSSTLTLSKADYEKHKVYACEVTHQGLSSPVTKSFNRGEC	544000	648000	37900	38400	–	–	–	–	–
Control Humanized anti-CD3 (low affinity) scFv-Fc knob/TM x gemtuzumab (bispecific antibody) scFv: EVQLVESGGGLVQPGGSLRLSCAASGFTFSTYAMNWVRQAPGKGLEWVGRIRSKYNNYATYYADSVKGRFTISRDDSKNTLYLQMNSLRAEDTAVYYCVRHGNFGDSYVSWFDYWGQGTLVTVSSGKPGSGKPGSGKPGSGKPGSQAVVTQEPSLTVSPGGTVTLTCGSSTGAVTTSNYANWVQQKPGKSPRGLIGGTNKRAPGVPARFSGSLLGGKAALTISGAQPEDEADYYCALWYSNHWVFGGGTKLTVLGGGGSDKTHTCPPCPAPEFEGGPSVFLFPPKPKDTLMISRTPEVTCVVVDVSHEDPEVKFNWYVDGVEVHNAKTKPREEQYNSTYRVVSVLTVLHQDWLNGKEYKCKVSNKALPASIEKTISKAKGQPREPQVYTLPPCREEMTKNQVSLWCLVKGFYPSDIAVEWESNGQPENNYKTTPPVLDSDGSFFLYSKLTVDKSRWQQGNVFSCSVMHEALHNHYTQKSLSLSPGK heavy: EVQLVQSGAEVKKPGSSVKVSCKASGYTITDSNIHWVRQAPGQSLEWIGYIYPYNGGTDYNQKFKNRATLTVDNPTNTAYMELSSLRSEDTAFYYCVNGNPWLAYWGQGTLVTVSSASTKGPSVFPLAPSSKSTSGGTAALGCLVKDYFPEPVTVSWNSGALTSGVHTFPAVLQSSGLYSLSSVVTVPSSSLGTQTYICNVNHKPSNTKVDKRVEPKSCDKTHTCPPCPAPEFEGGPSVFLFPPKPKDTLMISRTPEVTCVVVDVSHEDPEVKFNWYVDGVEVHNAKTKPREEQYNSTYRVVSVLTVLHQDWLNGKEYKCKVSNKALPASIEKTISKAKGQPREPQVCTLPPSREEMTKNQVSLSCAVKGFYPSDIAVEWESNGQPENNYKTTPPVLDSDGSFFLVSKLTVDKSRWQQGNVFSCSVMHEALHNRFTQKSLSLSPGK light: DIQLTQSPSTLSASVGDRVTITCRASESLDNYGIRFLTWFQQKPGKAPKLLMYAASNQGSGVPSRFSGSGSGTEFTLTISSLQPDDFATYYCQQTKEVPWSFGQGTKVEVKRTVAAPSVFIFPPSDEQLKSGTASVVCLLNNFYPREAKVQWKVDNALQSGNSQESVTEQDSKDSTYSLSSTLTLSKADYEKHKVYACEVTHQGLSSPVTKSFNRGEC	535000	623000	2620	3230	–	–	–	–	–
Gemtuzumab (antibody, V domains shown, the heavy chain entry carries the hole, H435R/Y436F and L234F/L235E/P331S changes, which the control may not have; also called anti-CD33 control antibody) VH: EVQLVQSGAEVKKPGSSVKVSCKASGYTITDSNIHWVRQAPGQSLEWIGYIYPYNGGTDYNQKFKNRATLTVDNPTNTAYMELSSLRSEDTAFYYCVNGNPWLAYWGQGTLVTVSS VL: DIQLTQSPSTLSASVGDRVTITCRASESLDNYGIRFLTWFQQKPGKAPKLLMYAASNQGSGVPSRFSGSGSGTEFTLTISSLQPDDFATYYCQQTKEVPWSFGQGTKVEVKR	321000	351000	2570	2570	–	–	–	–	–
ABL-CD3-9 (antibody, V domains shown, Chimeric hybridoma mAb: human V, CH1, upper hinge; mouse middle hinge, CH2, CH3) VH: EVQLVDSGGGLVKPGGSLRLSCAASGFTFSSYSMNWVRQAPGKGLEWVSSVNSRGSYIYYADSVKGRFTISRDNAKNSLYLQMNSLRADDTAVYYCARDRRELLLDYWGQGTLVTVSS VL: SYELTQPPSVSVSPGQTARITCSGDALPKKYAYWYQQKSGQAPVLVIYEDSKRPSGIPERFSGSSSGTMATLTISGAQVEDEADYYCYSTDSSGNHCWVFGGGTKLTVL	–	–	–	–	110 nM	0.1	0.114 s⁻¹	1.04e+06 M⁻¹ s⁻¹	Kd [5]: 70.8 nM; Response [5]: 0.34; koff [5]: 0.0393 s⁻¹; kon [5]: 555000 M⁻¹ s⁻¹
ABL-CD3-35 (antibody, V domains shown, Chimeric hybridoma mAb: human V, CH1, upper hinge; mouse middle hinge, CH2, CH3) VH: EVQLVESGGGLVKPGGSLRLSCAASGFTFSSYSMNWVRQAPGKGLEWVSSVNSRGSYIYYADSVKGRFTISRDNAKDSLYLQMNSLRADDTAVYYCARDRRELLLDYWGQGTLVTVSS VL: SYELTQPPSVSVSPGQTARITCSGDALPKKYAYWYQQKSGQAPVLVIYEDSKRPSGIPERFSGSSSGTMATLTISGAQVEDEADYYCYSTDSSGNHCWVFGGGTKLTVL	–	–	–	–	14.2 nM	0.12	0.0144 s⁻¹	1.02e+06 M⁻¹ s⁻¹	Kd [7]: 54.7 nM; Response [7]: 0.36; koff [7]: 0.0271 s⁻¹; kon [7]: 495000 M⁻¹ s⁻¹
ABL-CD3-45 (antibody, V domains shown, Chimeric hybridoma mAb: human V, CH1, upper hinge; mouse middle hinge, CH2, CH3) VH: EVQLVESGGGLVQPGGSLRLSCAASGFTFSSYWMSWVRQAPGKGLEWVANIKEDGSEKYYVDSVKGRFTISRDNAKNSLYLQMNSLRAEDTAVYYCARERRTGYLDYWGQGTLVTVSS VL: not shown	–	–	–	–	15.8 nM	0.03	0.00375 s⁻¹	237000 M⁻¹ s⁻¹	Kd [8]: 13.7 nM; Response [8]: 0.2; koff [8]: 0.000475 s⁻¹; kon [8]: 34600 M⁻¹ s⁻¹

Source: US20260167721A1 (ABLEXIS, published 2026)
